From the supplement of paper PMC9112550, “Optimization of the antimicrobial peptide Bac7 by deep mutational scanning” (BMC Biology, 2022) come the findings set out here.
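Note: peptides expressed intracellularly from a pBAD plasmid library in pooled LB shake-flask culture, induced with 0.3% L-arabinose, DNA abundance read by NGS, three biological replicates, DESeq2 with apeglm shrinkage.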

This series has as its system Escherichia coli TOP10. Briefly: shrunken log2 fold change of peptide-encoding DNA abundance (4.5 h post-induction vs induction); higher = less antimicrobial activity (less host growth inhibition). To be noted: time post-induction: 4.5 h; library: site-saturation at positions 5, 18, 19, 20.
For the sequence RRIRLRPPRLPRPRPRPFTIPRP, the “shrunken log2 fold change” value is -0.174.

For RRIRHRPPRLPRPRPRPLQEPRP, the “shrunken log2 fold change” value was -0.331. In the case of RRIRSRPPRLPRPRPRPRECPRP, the “shrunken log2 fold change” value worked out at 0.71.

On to RRIRQRPPRLPRPRPRPMISPRP, for which the “shrunken log2 fold change” value was -0.0269. For RRIRKRPPRLPRPRPRPFCEPRP, the “shrunken log2 fold change” value was -0.0765. For RRIRSRPPRLPRPRPRPKHGPRP, the “shrunken log2 fold change” value is -0.22.

RRIRHRPPRLPRPRPRPHLRPRP: the “shrunken log2 fold change” value was -0.0385.

For the sequence RRIRERPPRLPRPRPRPRNRPRP, the “shrunken log2 fold change” value is -0.134. Under RRIRTRPPRLPRPRPRPYDTPRP stands -0.661; under RRIRGRPPRLPRPRPRPIVQPRP, 0.606. For the sequence RRIRDRPPRLPRPRPRPYQVPRP, the “shrunken log2 fold change” value is -0.183. Turning to RRIRWRPPRLPRPRPRPLICPRP, the “shrunken log2 fold change” value is 0.803. Consider RRIRSRPPRLPRPRPRPRWIPRP, for which the “shrunken log2 fold change” value amounted to 0.00261. Regarding RRIRSRPPRLPRPRPRPLFIPRP, the “shrunken log2 fold change” value is -0.74. For the sequence RRIRNRPPRLPRPRPRPMFVPRP, the “shrunken log2 fold change” value is 0.134. Take RRIRRRPPRLPRPRPRPIQSPRP: the “shrunken log2 fold change” value is 0.0301. Consider RRIRNRPPRLPRPRPRPPDGPRP, for which the “shrunken log2 fold change” value was determined as 0.313. With RRIRQRPPRLPRPRPRPDCRPRP, the “shrunken log2 fold change” value was determined as 0.0305. In the case of RRIRERPPRLPRPRPRPHELPRP, the “shrunken log2 fold change” value is -0.0556.

For RRIRVRPPRLPRPRPRPHNVPRP, the “shrunken log2 fold change” value was -0.859. Regarding RRIRFRPPRLPRPRPRPRLTPRP, the “shrunken log2 fold change” value is -0.212.

As for RRIRFRPPRLPRPRPRPDVKPRP, the “shrunken log2 fold change” value is -0.0558.

For the sequence RRIRNRPPRLPRPRPRPPFMPRP, the “shrunken log2 fold change” value was -0.0578. Regarding RRIRTRPPRLPRPRPRPKLFPRP, the “shrunken log2 fold change” value is -0.0805. Take RRIRERPPRLPRPRPRPPIQPRP: the “shrunken log2 fold change” value was -0.27. The result for RRIRDRPPRLPRPRPRPMKGPRP reads 0.0395; that for RRIRRRPPRLPRPRPRPNREPRP, 0.232. As for RRIRYRPPRLPRPRPRPNRQPRP, the “shrunken log2 fold change” value is -0.053. With RRIRTRPPRLPRPRPRPGSCPRP, the “shrunken log2 fold change” value was found to be 0.083.

Turning to RRIRSRPPRLPRPRPRPPTQPRP, the “shrunken log2 fold change” value turned out to be 0.356.

For the sequence RRIRARPPRLPRPRPRPPGGPRP, the “shrunken log2 fold change” value stood at 0.864. Under RRIRYRPPRLPRPRPRPNFSPRP stands -0.401; under RRIRKRPPRLPRPRPRPEIIPRP, -0.0419; under RRIRRRPPRLPRPRPRPHFEPRP, -0.211. Consider RRIRERPPRLPRPRPRPHKIPRP, for which the “shrunken log2 fold change” value was -0.13. Under RRIRDRPPRLPRPRPRPSMEPRP stands 0.0308.

In the case of RRIRCRPPRLPRPRPRPDRWPRP, the “shrunken log2 fold change” value was found to be 0.0613. For the sequence RRIRFRPPRLPRPRPRPCKGPRP, the “shrunken log2 fold change” value was 0.000407. Under RRIRKRPPRLPRPRPRPNISPRP stands -0.102; under RRIRLRPPRLPRPRPRPTEHPRP, 0.121; under RRIRGRPPRLPRPRPRPPCIPRP, 0.117. As for RRIRYRPPRLPRPRPRPILAPRP, the “shrunken log2 fold change” value is -0.353. RRIRHRPPRLPRPRPRPDHMPRP: the “shrunken log2 fold change” value turned out to be 0.00372.

For the sequence RRIRGRPPRLPRPRPRPTKMPRP, the “shrunken log2 fold change” value stood at 0.521. As to RRIRHRPPRLPRPRPRPRNIPRP, the “shrunken log2 fold change” value is -0.326. RRIRRRPPRLPRPRPRPFEYPRP: the “shrunken log2 fold change” value was -0.0276. For RRIRNRPPRLPRPRPRPNLLPRP, the “shrunken log2 fold change” value was -0.112.

As to RRIRQRPPRLPRPRPRPRCDPRP, the “shrunken log2 fold change” value is -0.255. For RRIRRRPPRLPRPRPRPYCYPRP, the “shrunken log2 fold change” value was -0.101. Under RRIRRRPPRLPRPRPRPSAWPRP stands 0.462. For RRIRGRPPRLPRPRPRPNCMPRP, the “shrunken log2 fold change” value stood at 0.196. For RRIRYRPPRLPRPRPRPQCEPRP, the “shrunken log2 fold change” value is -0.0652. With RRIRTRPPRLPRPRPRPHKHPRP, the “shrunken log2 fold change” value was -0.417. The result for RRIRMRPPRLPRPRPRPVQFPRP reads 0.276; that for RRIRQRPPRLPRPRPRPCCSPRP, -0.0854; that for RRIRYRPPRLPRPRPRPYQAPRP, -0.0933. In the case of RRIRVRPPRLPRPRPRPYVAPRP, the “shrunken log2 fold change” value was -0.643.

Regarding RRIRNRPPRLPRPRPRPCMHPRP, the “shrunken log2 fold change” value was -0.0807. On to RRIRERPPRLPRPRPRPHFFPRP, for which the “shrunken log2 fold change” value was -0.154. On to RRIRGRPPRLPRPRPRPVRPPRP, for which the “shrunken log2 fold change” value came to 0.994. For RRIRPRPPRLPRPRPRPHMSPRP, the “shrunken log2 fold change” value is -0.27. With RRIRDRPPRLPRPRPRPKPSPRP, the “shrunken log2 fold change” value is 0.503. For RRIRARPPRLPRPRPRPIMTPRP, the “shrunken log2 fold change” value was 0.0421. Regarding RRIRYRPPRLPRPRPRPNPNPRP, the “shrunken log2 fold change” value was -0.735.

RRIRNRPPRLPRPRPRPAYEPRP: the “shrunken log2 fold change” value is -0.0122.

Regarding RRIRCRPPRLPRPRPRPVYMPRP, the “shrunken log2 fold change” value is -0.788. Under RRIRDRPPRLPRPRPRPVNMPRP stands -0.296. Consider RRIRRRPPRLPRPRPRPYCMPRP, for which the “shrunken log2 fold change” value was -0.546. As for RRIRHRPPRLPRPRPRPSKGPRP, the “shrunken log2 fold change” value is -0.149. Under RRIRHRPPRLPRPRPRPTFDPRP stands 0.0575; under RRIRMRPPRLPRPRPRPQFWPRP, 0.245. Take RRIRERPPRLPRPRPRPQRKPRP: the “shrunken log2 fold change” value came to 0.0503. As for RRIRPRPPRLPRPRPRPPLNPRP, the “shrunken log2 fold change” value amounted to 0.275. In the case of RRIRCRPPRLPRPRPRPNHTPRP, the “shrunken log2 fold change” value is -0.536.

Take RRIRGRPPRLPRPRPRPCTLPRP: the “shrunken log2 fold change” value came to 0.321.

Regarding RRIRRRPPRLPRPRPRPKEYPRP, the “shrunken log2 fold change” value was -0.0535. In the case of RRIRWRPPRLPRPRPRPPPLPRP, the “shrunken log2 fold change” value is 1.32. The result for RRIRKRPPRLPRPRPRPQHGPRP reads 0.205. Turning to RRIRMRPPRLPRPRPRPTYGPRP, the “shrunken log2 fold change” value is -0.00932. RRIRHRPPRLPRPRPRPKAWPRP: the “shrunken log2 fold change” value is -0.00151.

As for RRIRHRPPRLPRPRPRPHYYPRP, the “shrunken log2 fold change” value was -0.216. The result for RRIRWRPPRLPRPRPRPRNIPRP reads 0.00817; that for RRIRQRPPRLPRPRPRPLVAPRP, 0.034; that for RRIRRRPPRLPRPRPRPNFEPRP, 0.413. As for RRIRPRPPRLPRPRPRPADIPRP, the “shrunken log2 fold change” value was 0.142. The result for RRIRHRPPRLPRPRPRPLDWPRP reads 0.393. On to RRIRPRPPRLPRPRPRPGRHPRP, for which the “shrunken log2 fold change” value was -0.166. On to RRIRKRPPRLPRPRPRPTFVPRP, for which the “shrunken log2 fold change” value was 0.362. As to RRIRMRPPRLPRPRPRPYVTPRP, the “shrunken log2 fold change” value is -0.298. Under RRIRCRPPRLPRPRPRPKRFPRP stands 0.322. Under RRIRIRPPRLPRPRPRPMNRPRP stands -0.108. Consider RRIRMRPPRLPRPRPRPEWSPRP, for which the “shrunken log2 fold change” value amounted to 0.721. For RRIRYRPPRLPRPRPRPDYLPRP, the “shrunken log2 fold change” value was -1.57. Take RRIRLRPPRLPRPRPRPRYVPRP: the “shrunken log2 fold change” value was -0.265. As to RRIRNRPPRLPRPRPRPKNLPRP, the “shrunken log2 fold change” value is 0.13. Consider RRIRCRPPRLPRPRPRPNKVPRP, for which the “shrunken log2 fold change” value is -0.142. In the case of RRIRLRPPRLPRPRPRPLVNPRP, the “shrunken log2 fold change” value is -0.346. For RRIRNRPPRLPRPRPRPVNSPRP, the “shrunken log2 fold change” value was 0.0303. RRIRVRPPRLPRPRPRPKMTPRP: the “shrunken log2 fold change” value is -0.0628. As for RRIRSRPPRLPRPRPRPNDQPRP, the “shrunken log2 fold change” value is -0.102. Regarding RRIRHRPPRLPRPRPRPNEFPRP, the “shrunken log2 fold change” value was -0.00664. In the case of RRIRQRPPRLPRPRPRPCNLPRP, the “shrunken log2 fold change” value came to 0.0555. Consider RRIRTRPPRLPRPRPRPMKEPRP, for which the “shrunken log2 fold change” value was -0.164. Take RRIRSRPPRLPRPRPRPTHKPRP: the “shrunken log2 fold change” value amounted to 0.202. Under RRIRERPPRLPRPRPRPNSQPRP stands -0.389. With RRIRYRPPRLPRPRPRPRPEPRP, the “shrunken log2 fold change” value was determined as 0.254.

Turning to RRIRERPPRLPRPRPRPFCHPRP, the “shrunken log2 fold change” value is -0.0629. In the case of RRIRDRPPRLPRPRPRPSTLPRP, the “shrunken log2 fold change” value is -0.267. Take RRIRYRPPRLPRPRPRPYCRPRP: the “shrunken log2 fold change” value is -0.377. In the case of RRIRSRPPRLPRPRPRPFFSPRP, the “shrunken log2 fold change” value is -0.13.

On to RRIRMRPPRLPRPRPRPQRFPRP, for which the “shrunken log2 fold change” value was -0.0093.

With RRIRKRPPRLPRPRPRPQMPPRP, the “shrunken log2 fold change” value was determined as 0.0482. For the sequence RRIRWRPPRLPRPRPRPSRRPRP, the “shrunken log2 fold change” value was 0.215. In the case of RRIRERPPRLPRPRPRPHRSPRP, the “shrunken log2 fold change” value was -0.103. As for RRIRLRPPRLPRPRPRPPTHPRP, the “shrunken log2 fold change” value worked out at 0.147.

Take RRIRDRPPRLPRPRPRPCYDPRP: the “shrunken log2 fold change” value was -0.129. For the sequence RRIRERPPRLPRPRPRPRGWPRP, the “shrunken log2 fold change” value amounted to 0.917. In the case of RRIRQRPPRLPRPRPRPTWEPRP, the “shrunken log2 fold change” value was 0.0645. For RRIRERPPRLPRPRPRPINKPRP, the “shrunken log2 fold change” value is -0.506. With RRIRMRPPRLPRPRPRPAPIPRP, the “shrunken log2 fold change” value was determined as 0.618. Consider RRIRTRPPRLPRPRPRPNFHPRP, for which the “shrunken log2 fold change” value is -0.19. On to RRIRNRPPRLPRPRPRPTMSPRP, for which the “shrunken log2 fold change” value is -0.453.

As for RRIRERPPRLPRPRPRPFFHPRP, the “shrunken log2 fold change” value was -0.264.

For the sequence RRIRTRPPRLPRPRPRPGACPRP, the “shrunken log2 fold change” value was -0.234. Under RRIRCRPPRLPRPRPRPTRGPRP stands 0.807.
